Substitutions are numbered along the chain they refer to. In names and notes the source's numbering stands.

Consider 55 molecules from publication PMC12416549 (2024).

T1: TNFR1 (Homo sapiens, UniProt P19438)
T1 chain: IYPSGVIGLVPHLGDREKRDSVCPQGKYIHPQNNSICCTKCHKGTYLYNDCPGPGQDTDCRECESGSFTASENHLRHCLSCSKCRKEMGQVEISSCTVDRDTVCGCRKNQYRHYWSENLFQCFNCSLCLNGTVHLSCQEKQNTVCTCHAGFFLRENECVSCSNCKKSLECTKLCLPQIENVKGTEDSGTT

B1: A28W (designed binder)
chain: MTLQELLREEALRRAEAEAFRYALELLWEKFPEQKEYLLDLAEEIESQIRSLSGVDVEDVRKFLDKEWAWVKELLAEHPAELAEVEAARAARLAELRAEVEAKVAA
B2: G54C (designed binder)
chain: B1 chain with W28A, G54C
B3: L3Q (designed binder)
chain: B1 chain with L3Q, W28A
B4: I49P (designed binder)
chain: B1 chain with W28A, I49P
B5: L6F (designed binder)
chain: B1 chain with L6F, W28A
B6: E18A (designed binder)
chain: B1 chain with E18A, W28A
B7: E67K (designed binder)
chain: B1 chain with W28A, E67K
B8: A80W (designed binder)
chain: B1 chain with W28A, A80W
B9: A83M (designed binder)
chain: B1 chain with W28A, A83M
B10: S51K (designed binder)
chain: B1 chain with W28A, S51K
B11: E9C (designed binder)
chain: B1 chain with E9C, W28A
B12: A80V (designed binder)
chain: B1 chain with W28A, A80V
B13: Y22L (designed binder)
chain: B1 chain with Y22L, W28A
B14: E5K (designed binder)
chain: B1 chain with E5K, W28A
B15: F31L (designed binder)
chain: B1 chain with W28A, F31L
B16: E58D (designed binder)
chain: B1 chain with W28A, E58D
B17: S53R (designed binder)
chain: B1 chain with W28A, S53R
B18: R21L (designed binder)
chain: B1 chain with R21L, W28A
B19: D59G (designed binder)
chain: B1 chain with W28A, D59G
B20: Y37H (designed binder)
chain: B1 chain with W28A, Y37H
B21: D65R (designed binder)
chain: B1 chain with W28A, D65R
B22: E36C (designed binder)
chain: B1 chain with W28A, E36C
B23: A87V (designed binder)
chain: B1 chain with W28A, A87V
B24: S51P (designed binder)
chain: B1 chain with W28A, S51P
B25: K72R (designed binder)
chain: B1 chain with W28A, K72R
B26: W70M (designed binder)
chain: B1 chain with W28A, W70M
B27: E86R (designed binder)
chain: B1 chain with W28A, E86R
B28: E81C (designed binder)
chain: B1 chain with W28A, E81C
B29: R92A (designed binder)
chain: B1 chain with W28A, R92A
B30: E43V (designed binder)
chain: B1 chain with W28A, E43V
B31: A42T (designed binder)
chain: B1 chain with W28A, A42T
B32: R50F (designed binder)
chain: B1 chain with W28A, R50F
B33: A42F (designed binder)
chain: B1 chain with W28A, A42F
B34: L64M (designed binder)
chain: B1 chain with W28A, L64M
B35: R97L (designed binder)
chain: B1 chain with W28A, R97L
B36: A83V (designed binder)
chain: B1 chain with W28A, A83V
B37: A69L (designed binder)
chain: B1 chain with W28A, A69L
B38: A90F (designed binder)
chain: B1 chain with W28A, A90F
B39: A87C (designed binder)
chain: B1 chain with W28A, A87C
B40: E99Y (designed binder)
chain: B1 chain with W28A, E99Y
B41: A105W (designed binder)
chain: B1 chain with W28A, A105W
B42: A19C (designed binder)
chain: B1 chain with A19C, W28A
B43: G54S (designed binder)
chain: B1 chain with W28A, G54S
B44: K35P (designed binder)
chain: B1 chain with W28A, K35P
B45: M1T (designed binder)
chain: B1 chain with M1T, W28A
B46: A76P (designed binder)
chain: B1 chain with W28A, A76P
B47: V71S (designed binder)
chain: B1 chain with W28A, V71S
B48: L74H (designed binder)
chain: B1 chain with W28A, L74H
B49: Q4R (designed binder)
chain: B1 chain with Q4R, W28A
B50: S51T (designed binder)
chain: B1 chain with W28A, S51T
B51: E95D (designed binder)
chain: B1 chain with W28A, E95D
B52: R50C (designed binder)
chain: B1 chain with W28A, R50C
B53: R61T (designed binder)
chain: B1 chain with W28A, R61T
B54: E58A (designed binder)
chain: B1 chain with W28A, E58A
B55: Q48R (designed binder)
chain: B1 chain with W28A, Q48R

The test deals with T1, TNFR1. As to the kind of experiment: yeast display SC50.
For B1, the “apparent Kd (screen)” value was found to be 10400 pM.

On to B2, for which the “apparent Kd (screen)” value was 24400 pM.

Turning to B3, the “apparent Kd (screen)” value amounted to 22200 pM.

Regarding B4, the “apparent Kd (screen)” value was 24400 pM.

In the case of B5, the “apparent Kd (screen)” value was 2050 pM.

Take B6: the “apparent Kd (screen)” value is 718 pM.

Turning to B7, the “apparent Kd (screen)” value amounted to 2730 pM.

As to B8, the “apparent Kd (screen)” value stood at 446 pM.

B9: the “apparent Kd (screen)” value stood at 593 pM.

Turning to B10, the “apparent Kd (screen)” value is 1270 pM.

For B11, the “apparent Kd (screen)” value came to 405 pM.

Turning to B12, the “apparent Kd (screen)” value is 869 pM.

Regarding B13, the “apparent Kd (screen)” value was 718 pM.

Regarding B14, the “apparent Kd (screen)” value was 539 pM.

Take B15: the “apparent Kd (screen)” value came to 869 pM.

Take B16: the “apparent Kd (screen)” value worked out at 539 pM.

For B17, the “apparent Kd (screen)” value is 2050 pM.

As to B18, the “apparent Kd (screen)” value came out at 653 pM.

Turning to B19, the “apparent Kd (screen)” value turned out to be 653 pM.

As to B20, the “apparent Kd (screen)” value was 11400 pM.

For the molecule B21, the “apparent Kd (screen)” value was found to be 718 pM.

For B22, the “apparent Kd (screen)” value came out at 539 pM.

Turning to B23, the “apparent Kd (screen)” value was determined as 539 pM.

Take B24: the “apparent Kd (screen)” value was determined as 593 pM.

Turning to B25, the “apparent Kd (screen)” value was 869 pM.

On to B26, for which the “apparent Kd (screen)” value was determined as 13800 pM.

Consider B27, for which the “apparent Kd (screen)” value is 1270 pM.

Turning to B28, the “apparent Kd (screen)” value was 790 pM.

For the molecule B29, the “apparent Kd (screen)” value came to 956 pM.

As for B30, the “apparent Kd (screen)” value was 539 pM.

Take B31: the “apparent Kd (screen)” value was determined as 1050 pM.

In the case of B32, the “apparent Kd (screen)” value worked out at 1160 pM.

Consider B33, for which the “apparent Kd (screen)” value stood at 3300 pM.

For B34, the “apparent Kd (screen)” value was found to be 653 pM.

Turning to B35, the “apparent Kd (screen)” value was determined as 653 pM.

Turning to B36, the “apparent Kd (screen)” value amounted to 718 pM.

Take B37: the “apparent Kd (screen)” value was 490 pM.

B38: the “apparent Kd (screen)” value worked out at 869 pM.

As to B39, the “apparent Kd (screen)” value came out at 446 pM.

On to B40, for which the “apparent Kd (screen)” value stood at 718 pM.

Consider B41, for which the “apparent Kd (screen)” value came out at 869 pM.

On to B42, for which the “apparent Kd (screen)” value came to 490 pM.

For B43, the “apparent Kd (screen)” value was 956 pM.

Regarding B44, the “apparent Kd (screen)” value amounted to 2730 pM.

B45: the “apparent Kd (screen)” value turned out to be 490 pM.

With B46, the “apparent Kd (screen)” value worked out at 2050 pM.

B47: the “apparent Kd (screen)” value is 2480 pM.

As to B48, the “apparent Kd (screen)” value was found to be 790 pM.

With B49, the “apparent Kd (screen)” value is 490 pM.

With B50, the “apparent Kd (screen)” value stood at 405 pM.

As for B51, the “apparent Kd (screen)” value is 593 pM.

As to B52, the “apparent Kd (screen)” value was determined as 539 pM.

As for B53, the “apparent Kd (screen)” value was 593 pM.

With B54, the “apparent Kd (screen)” value stood at 718 pM.

Turning to B55, the “apparent Kd (screen)” value turned out to be 1860 pM.
